Numbering of substitutions follows the chain as printed. Like-named read-outs stand apart in the source and are kept apart here.

Assay [1] addresses T1, Receptor Binding Domain (RBD) of SARS-CoV-2 S protein (SARS-CoV-2, UniProt P0DTC2 319-541).
The target of assay [2] is T1, Receptor Binding Domain (RBD) of …. The source holds these as a separate data set.

B1: sRBD7 Fab (Fab, V domains shown)
VH: EVQLVESGGGLVQPGGSLRLSCAASGFNVYSSYIHWVRQAPGKGLEWVAYISPYYGSTYYADSVKGRFTISADTSKNTAYLQMNSLRAEDTAVYYCARYWSYGGMDYWGQGTLVTVSS
VL: DIQMTQSPSSLSASVGDRVTITCRASQSVSSAVAWYQQKPGKAPKLLIYSASSLYSGVPSRFSGSRSGTDFTLTISSLQPEDFATYYCQQYYYGALITFGQGTKVEIKR
As a reminder, the Kd is the equilibrium constant for the complex coming apart. A low value points to higher affinity. By koff is commonly meant the first-order rate constant of dissociation. A high value points to a short-lived complex. The kon is the second-order rate constant of association. Lower therefore signals slow association. In assay [1], B1 gave a Kd of 2.55 nM, a koff of 0.00029 s⁻¹ and a kon of 150000 M⁻¹ s⁻¹.

B2: sRBD1.15 Fab (Fab, V domains shown)
VH: EVQLVESGGGLVQPGGSLRLSCAASGFNFHNSYIHWVRQAPGKGLEWVASISSYSGYTYYADSVKGRFTISADTSKNTAYLQMNSLRAEDTAVYYCARSYQGQEALDYWGQGTLVTVSS
VL: B1 VL with Y92L, G94F, A95S, I97V
In the case of B2, in assay [2], the Kd amounted to 0.1 nM, the koff stood at 0.00011 s⁻¹ and the kon worked out at 1e+06 M⁻¹ s⁻¹.
